Several values for one entry are separate records, joined by “and”; a condition that tells them apart may be missing. Equal values may be shown once.
Target: PorKN heterodimer unit (P. gingivalis)
Assay: cryo-EM structure

PorKN heterodimer unit (complex)
stoichiometry N: 31 to 35 (2×) and 33

Reference: PMC12635249
